Experimental data as given in paper PMC9945442.

Target: Argonaute 2 (AGO2) (human (Homo sapiens), UniProt Q9UKV8 1-859)
Experiment: northern blot of purified loaded AGO2

Sequence of Argonaute 2 (AGO2) (Q9UKV8 whole entry): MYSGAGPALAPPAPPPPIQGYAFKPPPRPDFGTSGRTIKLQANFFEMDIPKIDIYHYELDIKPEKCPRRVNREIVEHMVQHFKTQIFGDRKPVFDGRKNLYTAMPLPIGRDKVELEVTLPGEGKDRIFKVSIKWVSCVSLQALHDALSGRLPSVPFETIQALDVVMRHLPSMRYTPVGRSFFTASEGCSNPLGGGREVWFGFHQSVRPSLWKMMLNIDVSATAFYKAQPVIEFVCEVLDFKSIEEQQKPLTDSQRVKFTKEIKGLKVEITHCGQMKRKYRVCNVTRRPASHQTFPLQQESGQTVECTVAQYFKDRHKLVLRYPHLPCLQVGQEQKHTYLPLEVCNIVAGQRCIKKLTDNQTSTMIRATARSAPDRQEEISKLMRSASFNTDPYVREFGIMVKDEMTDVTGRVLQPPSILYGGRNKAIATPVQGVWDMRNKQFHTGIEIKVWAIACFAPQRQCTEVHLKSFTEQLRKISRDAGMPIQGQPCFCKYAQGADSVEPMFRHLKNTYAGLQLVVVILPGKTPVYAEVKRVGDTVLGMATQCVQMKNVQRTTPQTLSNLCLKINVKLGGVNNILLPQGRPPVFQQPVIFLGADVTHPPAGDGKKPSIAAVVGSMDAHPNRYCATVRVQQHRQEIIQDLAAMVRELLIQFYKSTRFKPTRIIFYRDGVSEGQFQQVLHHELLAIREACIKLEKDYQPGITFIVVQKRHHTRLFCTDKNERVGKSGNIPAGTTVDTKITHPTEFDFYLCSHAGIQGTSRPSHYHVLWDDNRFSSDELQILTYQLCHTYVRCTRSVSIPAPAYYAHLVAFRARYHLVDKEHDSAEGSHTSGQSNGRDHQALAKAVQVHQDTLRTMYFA

UGGCAGUGUCUUAGCUGGUUGU (ssRNA) [miR-34a]: binds.
